# Data as given in US20260078146A1, “EPHA2 TARGETING AGENTS AND USES THEREOF” (The Regents of the University of California, priority 2022, published 2026).
# *1 amine or outer side, *2 acyl side, *3 side chain or, on linkers, in order; H or OH if unused. Where no end group is shown, it is not given here. [ ]: non-standard residue; d: D form. The star is where a group is joined. 2‑CF3‑Bip = 4-(2-trifluoromethylphenyl)-L-phenylalanine, O=C([C@H](Cc1ccc(-c2ccccc2C(F)(F)F)cc1)N[*:1])[*:2]; Phe(2-NH2) = O=C([C@H](Cc1ccccc1N[*:3])N[*:1])[*:2]; Acetyl(2-(piperazin-1-yl)) = O=C(CN1CCNCC1)*; Chg = N[C@H](C(=O)O)C1CCCCC1; GABA = NCCCC(=O)O; βAla = NCCC(=O)O
# B1: targefrin-dimer (agent 28, n = 1, Gly-Lys linker) (peptide)
# peptide: XLAXPDAXPFRPG
# chain: K
# modifications: branching Lys that carries one arm on each of its two amines; C-terminal CONH2; N-terminal PiperazAcAcid cap; X1 = 2-NH2-Phe; X4 = 2-CF3-Bip; X8 = Chg; the C-terminal Gly is joined to an amine of the branching Lys
# B2: dimeric targefrin agent 29 (n = 2, β-Ala spacer) (peptide)
# peptide: {Acetyl(2-(piperazin-1-yl))}-[Phe(2-NH2)]LA[2‑CF3‑Bip]PDA[Chg]PFRP[βAla]
# chain: Lys-NH2
# modifications: also: branching Lys carries a second identical arm (dimer)
# B3: dimeric targefrin agent 30 (n = 3, GABA spacer) (peptide)
# peptide: {Acetyl(2-(piperazin-1-yl))}-[Phe(2-NH2)]LA[2‑CF3‑Bip]PDA[Chg]PFRP[GABA]
# chain: Lys-NH2
# modifications: also: branching Lys carries a second identical arm (dimer)
# B4: targefrin (agent 27) (peptide)
# peptide: XLAXPDAXPFRP
# modifications: N-terminal PiperazAcAcid cap; X1 = 2NH2-Phe; X4 = 2-CF3-Bip; X8 = Chg; C-terminal CONH2
# notes: also called targefrin monomer; monomeric version of targefrin
# Key:
# [1] = 8 mg/Kg daily, IV, Balb/C mice, 3 mice
# MIA PaCa-2 tumors = assay: Tumor xenograft with MIA PaCa-2 cells; assay type: in vivo, nu/nu mice
# [2] = target: T1, EphA2 ligand binding domain (EphA2-LBD), recombinant (UniProt P29317 27-200, limits assumed); assay: DELFIA displacement; competitor: immobilised 123B9-Biotin
# T1 construct: also called EphA2 protein; isolated EphA2-LBD
# [3] = target: T1, EphA2 ligand binding domain …; assay: ITC
# [4] = dose equivalent to […] of PTX (targefrin-PTX 10 mg/Kg, targefrin-dimer-PTX 17 mg/kg), IV days 1, 4, 8, 11, 15, 18, compared to untreated and PTX groups
# T1 sequence (P29317 27-200 limits assumed): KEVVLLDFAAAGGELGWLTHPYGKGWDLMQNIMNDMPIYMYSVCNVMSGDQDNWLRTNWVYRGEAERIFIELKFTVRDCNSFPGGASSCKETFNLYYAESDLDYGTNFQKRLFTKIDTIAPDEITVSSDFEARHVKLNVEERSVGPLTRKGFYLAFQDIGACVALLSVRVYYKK
molecule,measurement,setting,value
"CC(=O)O[C@H]1C(=O)[C@@]2(C)[C@H]([C@H](OC(=O)c3ccccc3)[C@]3(O)C[C@H](OC(=O)[C@H](O)[C@@H](NC(=O)c4ccccc4)c4ccccc4)C(C)=C1C3(C)C)[C@]1(OC(C)=O)CO[C@@H]1C[C@@H]2O [PTX, paclitaxel, reference compound]",mice found dead after the 2nd dose,[1],2 of 3
PiperazAcAcid-(2-NH2-Phe)-L-A-(2-CF3-Bip)-PD-A-Chg-PFRPG-K-(Linker)-PTX (XLAXPDAXPFRPGK; not fully specified; non-natural residues) [targefrin-PTX],antitumor effect (tumor volume),MIA PaCa-2 tumors; [4],significant antitumor effect
"CC(=O)O[C@H]1C(=O)[C@@]2(C)[C@H]([C@H](OC(=O)c3ccccc3)[C@]3(O)C[C@H](OC(=O)[C@H](OC(=O)CCCCCn4cc(CCCC(=O)NCCCC[C@H](NC(=O)CNC(=O)[C@H](CCCCNC(=O)CNC(=O)[C@@H]5CCCN5C(=O)[C@@H](CCCNC(=N)N)NC(=O)[C@@H](Cc5ccccc5)NC(=O)[C@H]5CCCN5C(=O)[C@H](NC(=O)[C@@H](C)NC(=O)[C@@H](CC(=O)O)NC(=O)[C@@H]5CCCN5C(=O)[C@H](Cc5ccc(-c6ccccc6C(F)(F)F)cc5)NC(=O)[C@H](C)NC(=O)[C@H](CC(C)C)NC(=O)[C@H](Cc5ccc(N)cc5)NC(=O)CN5CCNCC5)C5CCCCC5)NC(=O)CNC(=O)[C@@H]5CCCN5C(=O)[C@H](CCCNC(=N)N)NC(=O)[C@H](Cc5ccccc5)NC(=O)[C@@H]5CCCN5C(=O)[C@@H](NC(=O)[C@H](C)NC(=O)[C@H](CC(=O)O)NC(=O)[C@@H]5CCCN5C(=O)[C@H](Cc5ccc(-c6ccccc6C(F)(F)F)cc5)NC(=O)[C@@H](C)NC(=O)[C@@H](CC(C)C)NC(=O)[C@@H](Cc5ccc(N)cc5)NC(=O)CN5CCNCC5)C5CCCCC5)C(N)=O)nn4)[C@@H](NC(=O)c4ccccc4)c4ccccc4)C(C)=C1C3(C)C)[C@]1(OC(C)=O)CO[C@@H]1C[C@@H]2O [targefrin-dimer-PTX, [PiperazAcAcid-(2-NH2-Phe)-L-A-(2-CF3-Bip)-PD-A-Chg-PFRPG]2-KGK-(Linker)-PTX]",antitumor effect (tumor volume),MIA PaCa-2 tumors; [4],significant antitumor effect
same,antitumor effect (tumor volume),"MIA PaCa-2 tumors; lower dose 10 mg/kg, equivalent to 1.5 mg/kg of PTX, compared to PTX […] group",more effective than the PTX treated group
B1,IC50,[2],6.5 nM
B2,IC50,[2],7.6 nM
B3,IC50,[2],5.3 nM
B4,-TΔS,[3],9.7 kcal/mol
same,ΔH,[3],-20.2 kcal/mol
